Publication PMC10808242, “Antibodies from dengue patients with prior exposure to Japanese encephalitis virus are broadly neutralizing against Zika virus” (Communications Biology, 2024)

Tests used:
[1] = target: ZIKV VLP with E R193A (Zika virus); assay: ELISA
[2] = target: ZIKV VLP with E T231A (Zika virus); assay: ELISA
[3] = target: DENV-1 virus-like particle (prM/E VLP) (dengue virus serotype 1)
[4] = target: T1, mature form virus-like particles of dengue virus serotype 2 (mD2VLP) (Dengue virus type 2, strain 16681 …, UniProt A0A173DS53); assay: cryo-EM structure; conditions: both partners purified
T1 construct: also called mature DENV-2 VLP; pVD2i-C18S; copies: 60 +

Binder | percent loss of binding relative to ZIKV WT VLP [1] [%] | percent loss of binding relative to ZIKV WT VLP [2] [%] | FRμNT50, neutralisation of the prototype DENV-1 strain on Vero cells [3] [µg/mL] | stoichiometry N [4]
huMAb K5 expressed as full-length human IgG1 (K5-IgG1) (antibody, V domains shown) VH: EVQLLESGAEVKKPGSSVKVSCQASGDTFSNSDINWVRQAPGQGLEWMGGIIPAYDTTNYARTFQGRVAITADKSTSTVYMELSRLRSEDTAVYYCATDQRDYFGLGNHFNAQHFWGQGTLVTVSS VL: AIRMTQTPLSLSASVGDRVTITCRASQSISNYLNWYQQRPGKAPNLLIYTASNLHSGVPSRFSGSGSGTDFTLTISSLQPEDFATYYCQQSYSGGYTFGQGPSWEIK | 70 | 70 | 0.771 | –
huMAb K8b expressed as full-length human IgG1 (K8b-IgG1) (antibody, V domains shown, also called pVCHIg-hG1-K8b + pVCLIg-hκ-K8b) VH: QVQLVQPGAEVVKPGASVKLSCKTSGYTFTSNWMHWVKQAPGQGLEWIGEIDPSDSYTNYNQNFQGKAKLTVDKSTSTAYMEVSSLRSDDTAVYYCARGSNPYYYAMDYWGQGTSVTVSS VL: EIVMMQSPLTLSLSPGERATLSCRASQSVSSNYLAWYQQRPGQAPRLLIYGVSSRATGVPVRFSGSGSGTDFTLTISRLEPEDFAVYYCQHYGGSLSWTFGQGTKVEIK | – | – | – | 60 F(ab) arms per VLP of 60 E proteins
